Values of other authors as cited in paper PMC8915186.

Target: IL-1R1 (Homo sapiens) (UniProt P14778)
UniProt P14778, sequence (P14778 18-569): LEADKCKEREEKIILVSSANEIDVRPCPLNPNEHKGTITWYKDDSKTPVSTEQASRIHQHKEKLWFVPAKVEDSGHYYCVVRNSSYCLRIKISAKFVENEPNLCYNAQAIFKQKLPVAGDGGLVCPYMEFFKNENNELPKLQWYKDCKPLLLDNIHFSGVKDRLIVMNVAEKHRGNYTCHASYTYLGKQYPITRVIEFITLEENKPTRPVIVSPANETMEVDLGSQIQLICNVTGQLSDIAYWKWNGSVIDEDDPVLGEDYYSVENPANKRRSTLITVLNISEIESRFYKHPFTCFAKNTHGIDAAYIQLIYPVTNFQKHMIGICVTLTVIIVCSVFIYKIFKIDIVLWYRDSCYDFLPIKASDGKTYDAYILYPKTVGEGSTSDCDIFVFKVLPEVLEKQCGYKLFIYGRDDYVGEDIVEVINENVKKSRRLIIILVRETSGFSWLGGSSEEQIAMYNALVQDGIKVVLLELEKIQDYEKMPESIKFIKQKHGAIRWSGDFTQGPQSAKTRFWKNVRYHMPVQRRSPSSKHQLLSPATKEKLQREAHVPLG

Substance: IL-1β (from UniProt P01584)
- Kd: 2 nM
